Measurements taken from patent US20260109774A1 (JUNO THERAPEUTICS, published 2026).

Legend:
[1] = molecular target: T1, human B-cell maturation antigen (BCMA) on cells (human, UniProt Q02223 1-184); experiment: flow cytometry on BCMA-expressing HEK293 cells vs control cells, crude lysate or bacterial supernatant; clone listed in Table E2
T1 construct: Recombinant on HEK293 or K562 cells, or endogenous on cell lines (H929, RPMI 8226, OPM2, MM1S, Daudi); also called hBCMA; huBCMA
T1 chain: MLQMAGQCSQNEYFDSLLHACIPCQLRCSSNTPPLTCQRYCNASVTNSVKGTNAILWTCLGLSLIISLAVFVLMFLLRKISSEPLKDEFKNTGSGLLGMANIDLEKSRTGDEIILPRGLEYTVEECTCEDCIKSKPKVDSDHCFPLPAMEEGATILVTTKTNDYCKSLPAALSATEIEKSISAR
Procedure: Specific binding of resulting scFv clones to BCMA-expressing HEK293 cells, as compared to control cells not expressing BCMA, was assessed by flow cytometry either with in vitro translated crude cell lysate or with bacterially-produced supernatant.

[2] = molecular target: T2, BCMA-Fc (soluble human BCMA fused at its C-terminus to an Fc region of IgG) (human, UniProt Q02223 1-54); experiment: flow cytometry, T cells transduced with Non-SSE construct, CD8 gate, recombinant BCMA-Fc (rBCMA) staining against surrogate marker
T2 construct: also called hBCMA-Fc; hBMCA-Fc
T2 sequence: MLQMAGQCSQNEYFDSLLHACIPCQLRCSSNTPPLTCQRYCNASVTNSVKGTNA
Procedure: (§1) Lentiviral constructs containing anti-BCMA CAR-encoding polynucleotides with starting and optimized sequences, respectively, as described in Example 3, were transduced into T cells and transduced cells were analyzed for transduction (based on expression of a surrogate marker) and for CAR expression based on binding to recombinant BCMA-Fc fusion protein by flow cytometry.

[3] = molecular target: T2, BCMA-Fc (soluble human BCMA fused at …); experiment: flow cytometry, T cells transduced with O/SSE construct, CD8 gate, recombinant BCMA-Fc (rBCMA) staining against surrogate marker
Procedure: as §1

[4] = molecular target: T2, BCMA-Fc (soluble human BCMA fused at …); experiment: flow cytometry, T cells transduced with Non-SSE construct, CD4 gate, recombinant BCMA-Fc (rBCMA) staining against surrogate marker
Procedure: as §1

[5] = molecular target: T2, BCMA-Fc (soluble human BCMA fused at …); experiment: flow cytometry, T cells transduced with O/SSE construct, CD4 gate, recombinant BCMA-Fc (rBCMA) staining against surrogate marker
Procedure: as §1

B1: BCMA-42 scFv (scFv)
scFv: EVQLLESGGGLVQPGRSLRLSCTASGFTFGDYAMSWFRQAPGKGLEWVGFIRSKAYGGTTEYAASVKGRFTISRDDSKSIAYLQMNSLKTEDTAVYYCAAWSAPTDYWGQGTLVTVSSGGGGSGGGGSGGGGSDIQMTQSPSLVSASVGDRVTITCRASQGIGNGLAWYQQKPGKAPKLLLFAASRLESGVPSRFSGSRSGTDYTLTISSLQPEDVATYYCQQYVEDALTFGGGTKVDIK
[1]
  binding result: binds

B2: BCMA-37 scFv (scFv)
scFv: EVQLVQSGGGLVKPGGSLRLSCAASGFTFSDYYMSWIRQAPGKGLEWVSYISSSGSTIYYADSVKGRFTISRDNAKSSLYLQMNSLRAEDTAVYYCARVDGDYVDDYWGQGTLVTVSSGGGGSGGGGSGGGGSQLVLTQEPSLTVSPGGTVTLTCGSSTGAVTNGHSPYWFQQKPGQAPRTLIYDTTNRHSWTPARFSGSLLGGKAALTLSGAQPEDEAEYYCSLSHAGDRVFFGGGTKLTVL
[1]
  binding result: binds

B3: BCMA-49 scFv (scFv)
scFv: QVQLVESGGGLVKPGGSLRLSCAASGFTFSDYYMSWIRQAPGKGLEWVSYISSSGSTIYYADSVKGRFTISRDNAKNSLYLQMNSLRAEDTAVYYCAKVDGPPSFDIWGQGTMVTVSSGGGGSGGGGSGGGGSLPVLTQPPSVSVAPGKTARITCGGDQIGRKSVHWYQQKPGQAPVLVMSYDSDRPSGIPERFSGSNSGNTATLTISRVEAGDEAAYYCQVWDSSTGQYVVFGGGTKLTVL
[1]
  binding result: binds

B4: BCMA-36 scFv (scFv)
scFv: QVQLVQSGGGLVKPGGSLRLSCAASGFTFSDYYMSWIRQAPGKGLEWVSYISSSGSTIYYADSVKGRFTISRDNAKNSLYLQMNSLRAEDTAVYYCARVDGDYVDDYWGQGTLVTVSSGGGGSGGGGSGGGGSQSVLTQEPSLTVSPGETVTLTCGSSTGPVTSAHSPSWFQKKPGQAPTTLIYETTNRHSWTPARFSGSLLGGKAALTLSGAQPEDEADYYCLLSSGDARMVFGGGTKLTVL
[1]
  binding result: binds

B5: BCMA-25-LS CAR (other)
chain: EVQLVQSGGGLVQPGRSLRLSCTASGFTFGDYAMSWFRQAPGKGLEWVGFIRSKAYGGTTEYAASVKGRFTISRDDSKSIAYLQMNSLKTEDTAVYYCAAWSAPTDYWGQGTLVTVSSGGGGSGGGGSGGGGSDIQMTQSPAFLSASVGDRVTVTCRASQGISNYLAWYQQKPGNAPRLLIYSASTLQSGVPSRFRGTGYGTEFSLTIDSLQPEDFATYYCQQSYTSRQTFGPGTRLDIKESKYGPPCPPCPAPPVAGPSVFLFPPKPKDTLMISRTPEVTCVVVDVSQEDPEVQFNWYVDGVEVHNAKTKPREEQFQSTYRVVSVLTVLHQDWLNGKEYKCKVSNKGLPSSIEKTISKAKGQPREPQVYTLPPSQEEMTKNQVSLTCLVKGFYPSDIAVEWESNGQPENNYKTTPPVLDSDGSFFLYSRLTVDKSRWQEGNVFSCSVMHEALHNHYTQKSLSLSLGKMFWVLVVVGGVLACYSLLVTVAFIIFWVKRGRKKLLYIFKQPFMRPVQTTQEEDGCSCRFPEEEEGGCELRVKFSRSADAPAYQQGQNQLYNELNLGRREEYDVLDKRRGRDPEMGGKPRRKNPQEGLYNELQKDKMAEAYSEIGMKGERRRGKGHDGLYQGLSTATKDTYDALHMQALPPR
notes: Chimeric antigen receptor; signal peptide left out; also called BCMA-25-LS-O/SSE CAR; BCMA-25-L CAR
[2]
  % of cells in Q1 (rBCMA+ marker-): 0.37%
  % of cells in Q3 (rBCMA- marker+): 29.4%
  % of cells in Q4 (rBCMA- marker-): 52.5%
[3]
  % of cells in Q1 (rBCMA+ marker-): 1.37%
  % of cells in Q3 (rBCMA- marker+): 17.5%
  % of cells in Q4 (rBCMA- marker-): 19.4%
[4]
  % of cells in Q1 (rBCMA+ marker-): 0.31%
  % of cells in Q3 (rBCMA- marker+): 30.5%
  % of cells in Q4 (rBCMA- marker-): 51.3%
[5]
  % of cells in Q1 (rBCMA+ marker-): 2.36%
  % of cells in Q3 (rBCMA- marker+): 10.4%
  % of cells in Q4 (rBCMA- marker-): 22.3%

B6: BCMA-45 scFv (scFv)
scFv: QVQLVQSGGGLVQPGRSLRLSCTASGFTFGDYAMSWFRQAPGKGLEWVGFIRSKAYGGTTEYAASVKGRFTISRDDSKSIAYLQMNSLKTEDTAVYYCAAWSAPTDYWGQGTLVTVSSGGGGSGGGGSGGGGSAIRMTQSPSSLSASVGDRVTITCRASQGIGRSLAWYKQKPGGVPQLLIHDASSLRSGVPSRFSGSGSGTEFTLTISGVQSEDSATYHCQQLNGYPWTFGQGTKVDIK
[1]
  binding result: binds

B7: BCMA-51 scFv (scFv)
scFv: EVQLVQSGGGLVQPGRSLRLSCTASGFTFGDYAMSWFRQAPGKGLEWVGFIRSKAYGGTTEYAASVKGRFTISRDDSKSIAYLQMNSLKTEDTAVYYCAAWSAPTDYWGQGTLVTVSSGGGGSGGGGSGGGGSAIQLTQSPSTLSASVGDRVAITCRASQNIGDWLAWYQQKPGKAPKLLIFGASILESGVPSRFSGSGSGTDFTLTISSLQPEDVAVYYCQKYDGAPPWTFGQGTKVEIK
[1]
  binding result: binds

B8: BCMA-48 scFv (scFv)
scFv: EVQLVESGGGLVKPGGSLRLSCAASGFTFSDYYMSWIRQAPGKGLEWVSYISSSGSTIYYADSVKGRFTISRDNAKNSLYLQMNSLRAEDTAVYYCAKVDGPPSFDIWGQGTMVTVSSGGGGSGGGGSGGGGSQPVLTQPPSVSVAPGKTATITCGGNNIGSKSVHWYQRKPGQGPVVVIQYDTDRPSGIPERFSGSNSGNTATLTISRVEAGDEGDYYCQVWDSSSDHWVFGGGTKLTVL
[1]
  binding result: binds

B9: BCMA-35 scFv (scFv)
scFv: EVQLVQSGGGLVKPGGSLRLSCAASGFTFSDYYMSWIRQAPGKGLEWVSYISSSGSTIYYADSVKGRFTISRDNAKNSLYLQMNSLRAEDTAVYYCARVDGDYDDYWGQGTLVTVSSGGGGSGGGGSGGGGSNFMLTQPPSVSVAPGQTARITCGANNIGSKSVHWYQQKPGQAPMLVVYDDDDRPSGIPERFSGSNSGNTATLTISGVEAGDEADYFCHLWDRSRDHYVFGTGTKLDIK
[1]
  binding result: binds

B10: BCMA-52-LS CAR (other)
chain: SYELTQPPSASGTPGQRVTMSCSGTSSNIGSHSVNWYQQLPGTAPKLLIYTNNQRPSGVPDRFSGSKSGTSASLAISGLQSEDEADYYCAAWDGSLNGLVFGGGTKLTVLGSRGGGGSGGGGSGGGGSLEMAEVQLVQSGAEVKKPGESLKISCKGSGYSFTSYWIGWVRQMPGKGLEWMGIIYPGDSDTRYSPSFQGHVTISADKSISTAYLQWSSLKASDTAMYYCARYSGSFDNWGQGTLVTVSSESKYGPPCPPCPAPPVAGPSVFLFPPKPKDTLMISRTPEVTCVVVDVSQEDPEVQFNWYVDGVEVHNAKTKPREEQFQSTYRVVSVLTVLHQDWLNGKEYKCKVSNKGLPSSIEKTISKAKGQPREPQVYTLPPSQEEMTKNQVSLTCLVKGFYPSDIAVEWESNGQPENNYKTTPPVLDSDGSFFLYSRLTVDKSRWQEGNVFSCSVMHEALHNHYTQKSLSLSLGKMFWVLVVVGGVLACYSLLVTVAFIIFWVKRGRKKLLYIFKQPFMRPVQTTQEEDGCSCRFPEEEEGGCELRVKFSRSADAPAYQQGQNQLYNELNLGRREEYDVLDKRRGRDPEMGGKPRRKNPQEGLYNELQKDKMAEAYSEIGMKGERRRGKGHDGLYQGLSTATKDTYDALHMQALPPR
notes: Chimeric antigen receptor on T cells; also called BCMA-52-LS-O/SSE CAR; BCMA-52-L CAR
[2]
  % of cells in Q1 (rBCMA+ marker-): 2.88%
  % of cells in Q3 (rBCMA- marker+): 24.3%
  % of cells in Q4 (rBCMA- marker-): 41.1%
[3]
  % of cells in Q1 (rBCMA+ marker-): 3.89%
  % of cells in Q3 (rBCMA- marker+): 5.38%
  % of cells in Q4 (rBCMA- marker-): 28.3%
[4]
  % of cells in Q1 (rBCMA+ marker-): 1.71%
  % of cells in Q3 (rBCMA- marker+): 19.5%
  % of cells in Q4 (rBCMA- marker-): 42.5%
[5]
  % of cells in Q1 (rBCMA+ marker-): 3.66%
  % of cells in Q3 (rBCMA- marker+): 3.85%
  % of cells in Q4 (rBCMA- marker-): 22.9%

B11: BCMA-38 scFv (scFv)
scFv: QVQLVQSGGGLVKPGGSLRLSCAASGFTFSDYYMSWIRQAPGKGLEWVSYISSSGSTIYYADSVKGRFTISRDNAKNSLYLQMNSLRAEDTAVYYCARVDGDYVDDYWGQGTLVTVSSGGGGSGGGGSGGGGSQAVLTQEPSLTVSPGGTVTLTCGSSTGAVTNGHSPYWFQQKPGQAPRTLIYDTNNRHSWTPARFSGSLLGGKAALTLSGAQPEDEADYFCLLSYSDARLAFGGGTKLTVL
[1]
  binding result: binds

B12: BCMA-41 scFv (scFv)
scFv: QVQLVQSGGGLVKPGGSLRLSCAASGFTFSDYYMSWIRQAPGKGLEWVSYISSSGNTIYYADSVKGRFTISRDNAKNSLYLQMNSLRAEDTAVYYCAKVDGDYVDDYWGQGTLVTVSSGGGGSGGGGSGGGGSQPVLTQPPSVSGTPGQRVTIPCSGSSSNIGGNSVDWFQEVPGTAPKLLIYANDRRPSGVPDRFSGTKSGTSASLAIRGLQSDDDAHYYCESWDDALNGHVFGGGTKLTVL
[1]
  binding result: binds
